Patent US9976134B2, “Thermolysin variants” (Danisco US Inc., priority 2007, dated 2018)
Positions count from the first letter of the chain named. Names and notes keep the numbering of the source.

B1: Y151M: single-substitution thermolysin variant (SEQ ID NO:3 numbering) (protein, listed as Geobacillus caldoproteolyticus)
chain: ITGTSTVGVGRGVLGDQKNINTTYSTYYYLQDNTRGNGIFTYDAKYRTTLPGSLWADADNQFFASYDAPAVDAHYYAGVTYDYYKNVHNRLSYDGNNAAIRSSVHYSQGYNNAFWNGSQMVYGDGDGQTFIPLSGGIDVVAHELTHAVTDMTAGLIYQNESGAINEAISDIFGTLVEFYANKNPDWEIGEDVYTPGISGDSLRSMSDPAKYGDPDHYSKRYTGTQDNGGVHINSGIINKAAYLISQGGTHYGVSVVGIGRDKLGKIFYRALTQYLTPTSNFSQLRAAAVQSATDLYGSTSQEVASVKQAFDAVGVK
B2: I156R: single-substitution thermolysin variant (SEQ ID NO:3 numbering) (protein, listed as Geobacillus caldoproteolyticus)
chain: B1 chain with M151Y, I156R
B3: Y151R: single-substitution thermolysin variant (SEQ ID NO:3 numbering) (protein, listed as Geobacillus caldoproteolyticus)
chain: B1 chain with M151R
B4: T049L: single-substitution thermolysin variant (SEQ ID NO:3 numbering) (protein, listed as Geobacillus caldoproteolyticus)
chain: B1 chain with T49L, M151Y
B5: Y151W: single-substitution thermolysin variant (SEQ ID NO:3 numbering) (protein, listed as Geobacillus caldoproteolyticus)
chain: B1 chain with M151W
B6: T278M: single-substitution thermolysin variant (SEQ ID NO:3 numbering) (protein, listed as Geobacillus caldoproteolyticus)
chain: B1 chain with M151Y, T278M
B7: Q273Y: single-substitution thermolysin variant (SEQ ID NO:3 numbering) (protein, listed as Geobacillus caldoproteolyticus)
chain: B1 chain with M151Y, Q273Y
B8: T049Q: single-substitution thermolysin variant (SEQ ID NO:3 numbering) (protein, listed as Geobacillus caldoproteolyticus)
chain: B1 chain with T49Q, M151Y
B9: I156M: single-substitution thermolysin variant (SEQ ID NO:3 numbering) (protein, listed as Geobacillus caldoproteolyticus)
chain: B1 chain with M151Y, I156M
B10: T049I: single-substitution thermolysin variant (SEQ ID NO:3 numbering) (protein, listed as Geobacillus caldoproteolyticus)
chain: B1 chain with T49I, M151Y
B11: Y151V: single-substitution thermolysin variant (SEQ ID NO:3 numbering) (protein, listed as Geobacillus caldoproteolyticus)
chain: B1 chain with M151V
B12: I156W: single-substitution thermolysin variant (SEQ ID NO:3 numbering) (protein, listed as Geobacillus caldoproteolyticus)
chain: B1 chain with M151Y, I156W
B13: I156T: single-substitution thermolysin variant (SEQ ID NO:3 numbering) (protein, listed as Geobacillus caldoproteolyticus)
chain: B1 chain with M151Y, I156T
B14: Y151Q: single-substitution thermolysin variant (SEQ ID NO:3 numbering) (protein, listed as Geobacillus caldoproteolyticus)
chain: B1 chain with M151Q

Legend:
[1] = TIDE 2X 0.78 g/l, 6 gpg, pH 8.2, 30 min at 20°C, A405; variant vs wild-type thermolysin at same protein concentration
Procedure: Thermolysin containing protease samples were obtained from filtered broth of cultures grown in microtiter plates for 3 days at 37° C. with shaking at 280 rpm under humidified aeration.
• Thermolysin containing culture supernatants (˜100-200 μg protein per ml) • TIDE® 2× (nil enzymes) detergent (P&G) • Dilution Buffer (10 mM NaCl, 0.1 mM CaCl2, 0.005% TWEEN®-80) The equipment used was a Biomek FX Robot (Beckman Coulter), a SpectraMAX MTP Reader (type 340; Molecular Devices), and an iEMS incubator/shaker (Thermo/Labsystems). MTPs were obtained from Costar (type 9017). TIDE® 2× Liquid Detergent Preparation (US Conditions):
Milli-Q water was adjusted to 6 gpg water hardness using a (Ca/Mg 3:1) hardness stock solution (282.3 g/L CaCl2.2H20, 130.1 g/L MgCl2.6H2O), 0.78 g/1 detergent TIDE® 2× was added, and the detergent solution was stirred vigorously for at least 15 minutes. Then, 5 mM HEPES was added and the pH adjusted to 8.2.
Microswatches of ¼ inch circular diameter were obtained from CFT (Vlaardingen, The Netherlands).
Two microswatches were placed vertically into each well of a 96-well microtiter plate to expose the whole surface area (i.e., not flat on the bottom of the well).
The incubator was set to 20° C. The filtered culture broth samples were tested at an appropriate concentration by dilution with a mixture of 10 mM NaCl, 0.1 mM CaCl2, 0.005% TWEEN®-80 solution. The detergent solution was prepared as described above. Then, 190 μl of detergent solution were added to each well of the MTP, containing microswatches. To this mixture, 10 μl of diluted enzyme solution were added to each well (to provide a total volume of 200 μl/well). The MTP was covered with a plate seal and placed in an incubator for 30 minutes at 20° C., with agitation at 1400 rpm (iEMS incubator). Following incubation under the appropriate conditions, 100 μl of solution from each well was removed and placed into a new MTP. Subsequently this MTP, containing 100 μl of solution/well, was read at 405 nm in a MTP-Reader. Blank controls, containing 2 microswatches/well and detergent, without the addition of thermolysin containing samples, were also included in the test.
The observed absorbance value was corrected for the blank value (obtained after incubation of microswatches in the absence of added enzyme). The resulting absorbance was a measure for the hydrolytic activity. For each sample (thermolysin or a variant) the performance index (PI) was calculated. The performance index is a comparison of the performance of the variant (actual value) and the standard thermolysin enzyme (theoretical value) at the same protein concentration. In addition, the theoretical values were calculated, using the parameters of the Langmuir equation of the standard enzyme.
C. Stability Assay in the Presence of Detergent
In this example, experiments were conducted to determine the stain removal performance of various singly substituted thermolysin (also referred to herein as Proteinase-T or PrT) variants. As described in Example 1, the stain cleaning performance of thermolysin variants was done utilizing a blood/milk/ink (BMI) microswatch assay. Briefly the cleaning performance of chosen single-substitution thermolysin variants was assessed in a TIDE® 2× microswatch assay.

[2] = Stability assay in 25% TIDE 2X detergent with DTPA (residual Abz-AGLA-Nba protease activity); type: physicochemical; conditions: 60 min at 32°C; variant residual AGLA activity divided by wild-type residual activity
Procedure, shortened: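 Thermolysin variant culture supernatants stressed in TIDE 2× detergent, with or without DTPA: 60 min at 32° C or 180 min at 50° C. Residual versus unstressed activity on Abz-AGLA-Nba read kinetically at 25° C (Ex 350/Em 420). Performance index is variant residual activity divided by wild-type thermolysin residual activity.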

[3] = Stability assay in 25% TIDE 2X detergent without DTPA (residual Abz-AGLA-Nba protease activity); type: physicochemical; conditions: 180 min at 50°C; variant residual AGLA activity divided by wild-type residual activity
Procedure: The stability of thermolysin and variants thereof was measured after incubation under defined conditions in the presence of 25% TIDE® 2× detergent. The initial and residual activity was determined.
MTPs were obtained from Costar (type 9017) and from Greiner (black plate, type 655076). Test Method Unstressed Conditions:
First, 20 μl thermolysin containing culture supernatant was diluted with 180 μl MES assay buffer. Then, 20 μl diluted supernatant was diluted further with 180 μl MES assay buffer. Subsequently 10 μl of this dilution was transferred into 190 μl AGLA-substrate solution in a pre-warmed plate (Greiner 655076) at 25° C. Any air bubbles present were blown away and the plate was measured according to the AGLA protease assay protocol described below.
First, 20 μl of culture supernatant was diluted with 180 μl 27.5% TIDE®+detergent solution and placed in the iEMS shaker. The plate covered with a plate seal was incubated for a total of 60 minutes at 32° C. at 900 rpm. In addition, 20 μl of culture supernatant was diluted with 180 μl 27.5% TIDE®−solution and placed in the iEMS shaker. This plate covered with a plate seal was incubated for a total of 180 minutes at 50° C. at 900 rpm.
Subsequently after the respective incubations, 20 μl of either of these solutions were diluted with 180 μl MES assay buffer and 10 μl of this dilution were diluted with 190 μl AGLA-substrate solution in a pre-warmed plate (Greiner 655076) at 25° C.
Fluorescence measurements were taken at excitation of 350 nm and emission of 420 nm. The spectrofluorometer software calculated the reaction rates (=slope) of the increase in fluorescence for each well to a linearly regressed line of (milli-) RFU/min. The ratio of the residual and initial AGLA activity was used to express the 25% TIDE® 2× stability as follows: Percentage of residual activity=[slope of stressed]*100/[slope of unstressed]
For each sample (thermolysin and variants thereof) the performance index was calculated by dividing the residual activity of the variant by the residual activity of thermolysin. The performance index compared the stability of the variant and the standard thermolysin enzyme (e.g., wild type or parental enzyme), determined under the same conditions.
In these experiments, the liberation of Abz-AG by protease cleavage of Abz-AGLA-Nba was monitored by fluorescence spectrometry (Ex. 350/Em. 420). The rate of appearance of Abz-AG was a measure of proteolytic activity.
The Abz-AGLA-Nba assay solution was prepared by adding 1 ml of the Abz-AGLA-Nba stock to 19 ml MES substrate buffer and mixed well for at least 2 minutes. Subsequently the thermolysin or variants thereof containing culture supernatants were diluted with MES assay buffer to a concentration of 1-6 μg protein per ml.
The assay was performed by adding 10 μl of diluted protease solution to each well, followed by the addition of 190 μl Abz-AGLA-Nba assay solution that was pre-equilibrated for at least 15 minutes at 25° C. The solutions were vigorously mixed, and the liberation of Abz-AG by protease cleavage of Abz-AGLA-Nba was monitored by fluorescence spectrometry at 25° C. in kinetic mode with excitation set at 350 nm and emission set at 420 nm. The rate of appearance of Abz-AG was a measure of proteolytic activity in the samples. The protease activity was expressed as RFU (relative fluorescence units·min^−1).
As described in Example 1, the stability of thermolysin variants was measured by determining the AGLA activity before and after incubation in the presence of TIDE® 2× heavy duty liquid (HDL) detergent at an elevated temperature. The tables contain the relative stability values compared to wild-type thermolysin, which is the quotient of the variant residual activity divided by the wild-type residual activity. A value greater than one indicates higher stability in the presence of detergent. […]

Row | Molecule | PI (performance index), stain removal [1] | PI (relative stability), 25% TIDE 2X with DTPA [2] | PI (relative stability), 25% TIDE 2X without DTPA [3]
1 | B1 | 1.06 | 1.09 | –
2 | B2 | 1.22 | 1.15 | –
3 | B3 | 1.75 | 1.26 | –
4 | B4 | 1.25 | 1.02 | –
5 | B5 | 1.22 | 1.02 | –
6 | B6 | 1.02 | 1.09 | –
7 | B7 | 1.09 | 1.05 | –
8 | B8 | 1.30 | – | 1.07
9 | B9 | 1.11 | 1.19 | –
10 | B10 | 1.24 | 1.01 | –
11 | B11 | 1.25 | 1.11 | –
12 | B12 | 1.16 | 1.12 | –
13 | B13 | 1.03 | 1.08 | –
14 | B14 | 1.29 | 1.03 | –
